The source of these data is the supplement of paper PMC12042874.

± gives the uncertainty stated by the source.

A short description of this series: amyloid nucleation score (Sup35N fusion, yeast selection) (log enrichment); library NNK2; higher = more nucleation; inactive = no reads after selection. In short, it runs like this:
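The nucleation score is the log enrichment of output over input reads, calculated with DiMSum and centred on the mode score of non-aggregating sequences. Sequences with under 100 input reads were excluded. Reads came from Illumina sequencing of plasmid inserts from psi-negative yeast expressing Sup35N fused to peptides of 20 random codons, induced 24 hours with 100 μM copper sulfate and grown 7 days at 30°C without adenine and uracil.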
Substance RSSWPTLKQGCSKSRQIWRA returned an amyloid nucleation score of 0.182 ± 0.3.
The same measure for RSLTCLSVKGNLTHTINVCY: 6.08 ± 0.069; for ARHMHSASYNYTGTRSYSFY: 5.56 ± 0.091.
For the substance AREHPKY, the amyloid nucleation score was found to be 0.645 ± 0.14.
Take MTFAT: the amyloid nucleation score was -1.51 ± 1.1.
The same measure for VSSLMMVGNRFLIISWTESV: 2.55 ± 0.092; for NCSLCFENGMAYFCILIEGV: 5.645 ± 0.043.
The same measure for SFSRSSAYVVHVLGYLEFRT: -0.004 ± 0.65.
Take VDFFCQPGTCVQEVEDLLVL: the amyloid nucleation score was -0.166 ± 0.35.
The same measure for SMMTVADP: -0.529 ± 0.79; for PWVSILLVPMYQRHLTPHPE: -0.121 ± 1.1; for PALQCLSHRAIA: 0.222 ± 0.62.
Regarding LKTGSF, the amyloid nucleation score entry was “inactive”.
The same measure for WAGRDHFWNIIYLDLSFVGE: 3.77 ± 0.12.
GNYPPTFACNSN: the amyloid nucleation score entry was “inactive”.
Consider GLFRWYNMDNYVQI, for which the amyloid nucleation score was -0.604 ± 0.76.
Next, LNVDGDRAGVYIVKVHDPVR: 0.027 ± 0.74; LQVIHGSPRLRLYDYQRNNF: 7.482 ± 0.04.
Regarding GVKFQAAEAGPPGTYGTLGS, the amyloid nucleation score is -0.031 ± 0.63.
The same measure for HIMIFWYPVLTIKVQYDVGV: “inactive”.
YVNDIRSKNPALEHEGDL showed an amyloid nucleation score of -0.58 ± 0.55.
For CCCWRECDNKRSRTLHCEAW, the amyloid nucleation score came out at 0.557 ± 0.66.
The same measure for PWFKTFWSNMWAVTGW: -0.436 ± 1.1; for CDRLELRN: 0.065 ± 0.43; for WQSAEEWMLPYGVNMVVSWA: 0.483 ± 0.46.
The same measure for NPYTCMKTHYNRRNI: 3.41 ± 0.15.
Next, IRRTPHLISFLRKLCEYWIE: “inactive”; PHCRSLETH: -0.083 ± 0.33; ATYPVSATGSGELWVDRGQE: 0.603 ± 0.38.
In the case of CLIAVNTKGRVVHVYGRTGG, the amyloid nucleation score is 3.53 ± 0.093.
Next, MVGNWDSV: -0.011 ± 0.49.
The same measure for PSYFRNRIRLSRVGTNGYTR: -0.693 ± 1.1; for RLDGSG: 0.587 ± 0.2.
Next, RTCHGHYFLMM: 0.683 ± 0.74; YGDCLRLTDSYVSIFTRVPT: 0.159 ± 0.3; RGDRSWGVRSCSRYDAAIAG: 1.71 ± 0.38.
For YMYLVVCLIVSHDPVSVVEW, the amyloid nucleation score entry is “inactive”.
LDICCIRGMNRHFRFYNVDV had an amyloid nucleation score of -0.402 ± 0.61.
The same measure for PGRLKCGNSRYFWYFDMRHV: “inactive”; for RLLRLDQKQIMVRSSSAVLR: -0.107 ± 0.32; for CSKLAGKHVNISVGPLWRAG: 0.183 ± 0.53.
In turn, SVLVVPVT gave an amyloid nucleation score of 0.182 ± 0.79.
NILAMKLFVNKFHVIFDEFL came in with an amyloid nucleation score of 0.097 ± 1.1.
As to IGARFKFNQWTSYYIQRF, the amyloid nucleation score result is “inactive”.
The same measure for DIFIGNSVCGVYRMVNMYSY: “inactive”; for LLRGRFGDSVSAVGFSGFCN: -0.502 ± 0.45.
Take LQKWYGDD: the amyloid nucleation score came to 1.58 ± 0.34.
Next, QNECKIMTLIFCLLRSKQYY: 0.005 ± 0.65; CDCWYFKC: 5.42 ± 0.095; FRSKPAFRVMGVVCRGFYFL: -0.637 ± 1.1.
The same measure for KVTSRTTGMIVSFFMPCLEM: 5.97 ± 0.072.
Consider FDVSWMARVELSIM, for which the amyloid nucleation score is -0.018 ± 0.33.
Take WSHGHIFIRD: the amyloid nucleation score entry was “inactive”.
CHVYYVQFVLAD: the amyloid nucleation score was -0.604 ± 0.76.
Next, APFQRPSSPTDREYRNGALL: 1.27 ± 0.23; FARGMVRSSTGTM: -1.88 ± 0.44; RWMILSFSLAWVSMSFENNM: 0.784 ± 0.18.
With ARDNQMARDI, the amyloid nucleation score stood at 2.83 ± 0.15.
The substance CWFSVYNTLVGCNLVPTKGD gave an amyloid nucleation score of 6.666 ± 0.065.
Next, YVYEIDYSRFQFCARWVGWA: 0.597 ± 0.48; LLDINSCRFDMVISDMDNCP: “inactive”; HIGSVVVELLSVRLLWHCMH: 5.94 ± 0.088.
TDYHMFYRLDCLPLTTTCPV displayed an amyloid nucleation score of 4.88 ± 0.087.
Next, SELRTAKPVN: 0.635 ± 0.26; VQPYSILNFRMELKANRLEL: 4.4 ± 0.052; RYINQ: -0.481 ± 1.1.
Next, MDMPVWG: 0.285 ± 1.
The same measure for TLYYIVRHQICANFYRMYNG: “inactive”.
LYFRVNDEGVHFTCEGQKKE: the amyloid nucleation score stood at 1.46 ± 0.17.
As to SFTFCARNSGLIGWSGDISS, the amyloid nucleation score was found to be 4.07 ± 0.1.
ELTTTTTYVRKVFCLYFS: the amyloid nucleation score came to 8.422 ± 0.047.
LGDERDADQIPSGIYG showed an amyloid nucleation score of 1.26 ± 0.27.
Next, YILLFSVGICPPRSWLIYCP: 4.21 ± 0.11; SNKTIYKLFRIISPGYFGSS: -1.16 ± 1; ELFQIAVTRTKFLLVQSSYS: 1.27 ± 0.18.
On to CITSSSLCSDPYLCLSAKNL, for which the amyloid nucleation score result was “inactive”.
Next, FNALTVDQTVHSYGVYADLP: 0.191 ± 0.21.
The same measure for LLVRTYKLMMFHSLGIG: -0.583 ± 1; for LYHVISSNWHEDNDMT: 0.003 ± 0.23; for GNLGSHYALGPLDRATRGER: 0.632 ± 0.26.
The same measure for QAISVEVVGYRSNLESFTIW: 1.71 ± 0.11; for FIFVVMVMVWFWTGLCLSYN: “inactive”.
For TVSVNLYNFVLQTSY, the amyloid nucleation score came out at 4.55 ± 0.069.
LLADAVMWFTMGSEDHDCY: the amyloid nucleation score is -0.531 ± 0.44.
Next, LRTTGLHFSSRLMVFTLNWI: -0.237 ± 0.33; YVIFHSEEMN: “inactive”; TYICT: -0.59 ± 0.24.
The same measure for DPKVVMLVMTDMLNFG: 5.71 ± 0.06; for YVWRYVRPLVLAIDCVVAR: 0.001 ± 0.42.
Next, YKTIIRSVMSELSGSLRQSE: 1.26 ± 0.11; GHCLSYMCVGLA: 4.304 ± 0.039; MCTAFSDNHHTRTYPAPKSH: 0.196 ± 0.46.
On to DVVKSVPQTPL, for which the amyloid nucleation score was found to be 0.851 ± 0.28.
The same measure for MNFWMILVKSETYFNDRRPY: 7.152 ± 0.061.
The same measure for CRSFAFTLSNMYLMM: 6.52 ± 0.082.
MRCKRYECSGDSWWGYSFAK yielded an amyloid nucleation score of 0.131 ± 0.27.
The same measure for MSTIEYSDGVEGRHILCLIA: 1.2 ± 0.35.
Consider EKICRWHTDRGAFN, for which the amyloid nucleation score entry was “inactive”.
The same measure for YPCPAVVCSYAA: 0.705 ± 0.44; for KFTLGHVNIVWNMVVYATQE: 8.24 ± 0.083.
Next, IHSNEDFVRSESGVLDAYSV: -0.627 ± 0.42.
The same measure for VFWGM: -1.35 ± 0.49.
In turn, GWKDGLAASSF came in with an amyloid nucleation score of 1.01 ± 0.2.
The same measure for SVNWSFRSMNIFH: 3.45 ± 0.055; for LVQCRNVSMNTILSIGGGKS: 6.17 ± 0.075.
As for AFQWYLM, the amyloid nucleation score is -0.693 ± 0.18.
Substance KITCVITNALCSLTERADR came in with an amyloid nucleation score of 9.394 ± 0.069.
Next, QSKMH: -0.321 ± 0.19; QLVMCGHEDQYIRSDRSERN: -0.112 ± 0.25; RRTIGASTEKYRLNNFLHVC: -0.661 ± 1.1.
ESLMKSYVLSAYMCGPIGGR registered an amyloid nucleation score of 1.03 ± 0.37.
With VFIMGPTS, the amyloid nucleation score was found to be 3.96 ± 0.092.
Consider PVCFGIEVYDVRFVASNVPG, for which the amyloid nucleation score is 0.313 ± 0.48.
Regarding KALCLYNVVRKKRCT, the amyloid nucleation score worked out at 0.152 ± 0.5.
Substance GRIILTLFNYYT displayed an amyloid nucleation score of 6.878 ± 0.062.
In turn, MMKGRDKTGYPTTRGVMCDK had an amyloid nucleation score of 0.232 ± 0.18.
The same measure for VFDEVVVDTLKWWSCVSAGI: -0.484 ± 0.54; for KRNVRFVGMITKRMSRSRPI: 0.511 ± 0.43.
As for GWVKTLEGLLMCLVVCNTVM, the amyloid nucleation score is 2.98 ± 0.12.
Next, EKTFRFADYLMCPASSRSSV: -0.082 ± 0.4.
In turn, NFHLSVRSDSYVL showed an amyloid nucleation score of 3.14 ± 0.12.
As to QSVGATNLLG, the amyloid nucleation score came to 0.501 ± 0.34.
Next, LTHWI: -0.284 ± 0.23; YCGLVWVSKYSVTRAFRRNV: -0.297 ± 0.39.
The same measure for RQSIEISYLYISFGHKYR: 5.98 ± 0.083; for FEFVYFVRSIG: -0.129 ± 0.5; for TKVQERLGHF: 1.46 ± 0.58.
Next, ALHSWFRMSSLSMYIVDMGG: -0.077 ± 0.76; LGLRDELTVVVCWFRTYLIR: 4.634 ± 0.044.
Substance LRYKGMRFLNWMRNLKWDGI had an amyloid nucleation score of 0.022 ± 0.65.
PAVWVN gave an amyloid nucleation score of -0.34 ± 0.56.
The same measure for EVVAISNTASICLYSNYKH: 5.04 ± 0.1.
IAVAKYLTLKDVVLNSWNSY displayed an amyloid nucleation score of 7.624 ± 0.036.
Next, SVKIWCFIWEFPCFMLFRAL: -0.168 ± 1.1; WTRAVKPPV: -0.113 ± 0.34; LEVKARFP: -0.471 ± 0.45.
With HFMSYAAWAREWSVEPQ, the amyloid nucleation score was 0.967 ± 0.66.
Next, MEIRTQLFVLVCSKNILGDS: -0.849 ± 1.1.
The same measure for SCTDLLYDIDCIHSHECLLL: -0.397 ± 0.35; for RKAFIHVDKRLDSSIGTRSG: 0.321 ± 0.41.
